{"source": "patent US20240360201A1", "about": "(BIOCYTOGEN PHARMACEUTICALS BEIJING, published 2024)", "binders": {"B1": {"name": "PDL1-3F2 (antibody, human IgG1, kappa)", "heavy": "not shown", "light": "DIVLTQSPDFQSVTPKEKVTITCRASQSISNNLHWYQQKPDESPKLLIKYASQSISGIPSRFSGSGSGTDFTLTINSVEAEDFAMYFCQQSKSWPFTFGQGTRLEIKRTVAAPSVFIFPPSDEQLKSGTASVVCLLNNFYPREAKVQWKVDNALQSGNSQESVTEQDSKDSTYSLSSTLTLSKADYEKHKVYACEVTHQGLSSPVTKSFNRGEC", "notes": "also called PDL1-3F2-IgG1; PDL1-3F2 IgG1"}, "B2": {"name": "3F2-mIL12-3A (antibody, IgG1)", "heavy": "QVQLQESGPGLVKPSETLSLTCTVSGYSITSGYNWHWIRQFPGNGLEWMGYIHHSSITNYNPSLKSRITISRDTSKNQFSLKLSSVTAADTATYYCAREGYDYDWFAYWGQGTLVTVSSASTKGPSVFPLAPSSKSTSGGTAALGCLVKDYFPEPVTVSWNSGALTSGVHTFPAVLQSSGLYSLSSVVTVPSSSLGTQTYICNVNHKPSNTKVDKKVEPKSCDKTHTCPPCPAPELLGGPSVFLFPPKPKDTLMISRTPEVTCVVVDVSHEDPEVKFNWYVDGVEVHNAKTKPREEQYNSTYRVVSVLTVLHQDWLNGKEYKCKVSNKALPAPIEKTISKAKGQPREPQVYTLPPSRDEGGGGSGGGGSVIPVSGPARCLSQSRNLLKTTDDMVKTAREKLKHYSCTAEDIDHEDITRDQTSTLKTCLPLELHKNESCLATRETSSTTRGSCLPPQKTSLMMTLCLGSIYEDLKMYQTEFQAINAALQNHNHQQIILDKGMLVAIDELMQSLNHNGETLRQKPPVGEADPYRVKMKLCILLHAFSTRVVTINRVMGYLSSAGGGGSGGGGSVSLTCLVKGFYPSDIAVEWESNGQPENNYKTTPPVLDSDGSFFLYSKLTVDKSRWQQGNVFSCSVMHEALHNHYTQKSLSLSPGK", "light": "B1 light", "chain": "MWELEKDVYVVEVDWTPDAPGETVNLTCDTPEEDDITWTSDQRHGVIGSGKTLTITVKEFLDAGQYTCHKGGETLSHSHLLLHKKENGIWSTEILKNFKNKTFLKCEAPNYSGRFTCSWLVQRNMDLKFNIKSSSSSPDSRAVTCGMASLSAEKVTLDQRDYEKYSVSCQEDVTCPTAEETLPIELALEARQQNKYENYSTSFFIRDIIKPDPPKNLQMKPLKNSQVEVSWEYPDSWSTPHSYFSLKFFVRIQRKKEKMKETEEGCNQKGAFLVEKTSTEVQCKGGNVCVQAQDRYYNSSCSKWACVPCRVRS", "notes": "IgG1; IL12b co-expressed; also called 3F2-mIL12-3A-IgG1"}, "B3": {"name": "3F2-hIL7-3A-mIFNa4 (antibody, IgG1)", "heavy": "QVQLQESGPGLVKPSETLSLTCTVSGYSITSGYNWHWIRQFPGNGLEWMGYIHHSSITNYNPSLKSRITISRDTSKNQFSLKLSSVTAADTATYYCAREGYDYDWFAYWGQGTLVTVSSASTKGPSVFPLAPSSKSTSGGTAALGCLVKDYFPEPVTVSWNSGALTSGVHTFPAVLQSSGLYSLSSVVTVPSSSLGTQTYICNVNHKPSNTKVDKKVEPKSCDKTHTCPPCPAPELLGGPSVFLFPPKPKDTLMISRTPEVTCVVVDVSHEDPEVKFNWYVDGVEVHNAKTKPREEQYNSTYRVVSVLTVLHQDWLNGKEYKCKVSNKALPAPIEKTISKAKGQPREPQVYTLPPSRDEGGGGSGGGGSDCDIEGKDGKQYESVLMVSIDQLLDSMKEIGSNCLNNEFNFFKRHICDANKEGMFLFRAARKLRQFLKMNSTGDFDLHLLKVSEGTTILLNCTGQVKGRKPAALGEAQPTKSLEENKSLKEQKKLNDLCFLKRLLQEIKTCWNKILMGTKEHGGGGSGGGGSVSLTCLVKGFYPSDIAVEWESNGQPENNYKTTPPVLDSDGSFFLYSKLTVDKSRWQQGNVFSCSVMHEALHNHYTQKSLSLSPGKGGGGSGGGGSGGGGSGGGGSCDLPHTYNLGNKRALTVLEEMRRLPPLSCLKDRKDFGFPLEKVDNQQIQKAQAILVLRDLTQQILNLFTSKDLSATWNATLLDSFCNDLHQQLNDLKACVMQEPPLTQEDSLLAVRTYFHRITVYLRKKKHSLCAWEVIRAEVWRALSSSTNLLARLSEEKE", "light": "B1 light", "notes": "IgG1"}, "B4": {"name": "3F2-hIL21-3A-mIFNa4 (antibody, IgG1)", "heavy": "not shown", "light": "B1 light", "notes": "IgG1"}, "B5": {"name": "3F2-hIL21-3A (antibody, IgG1)", "heavy": "not shown", "light": "B1 light", "notes": "IgG1"}, "B6": {"name": "3F2-mIL12-3A-mIFNa4 (antibody, IgG1)", "heavy": "QVQLQESGPGLVKPSETLSLTCTVSGYSITSGYNWHWIRQFPGNGLEWMGYIHHSSITNYNPSLKSRITISRDTSKNQFSLKLSSVTAADTATYYCAREGYDYDWFAYWGQGTLVTVSSASTKGPSVFPLAPSSKSTSGGTAALGCLVKDYFPEPVTVSWNSGALTSGVHTFPAVLQSSGLYSLSSVVTVPSSSLGTQTYICNVNHKPSNTKVDKKVEPKSCDKTHTCPPCPAPELLGGPSVFLFPPKPKDTLMISRTPEVTCVVVDVSHEDPEVKFNWYVDGVEVHNAKTKPREEQYNSTYRVVSVLTVLHQDWLNGKEYKCKVSNKALPAPIEKTISKAKGQPREPQVYTLPPSRDEGGGGSGGGGSVIPVSGPARCLSQSRNLLKTTDDMVKTAREKLKHYSCTAEDIDHEDITRDQTSTLKTCLPLELHKNESCLATRETSSTTRGSCLPPQKTSLMMTLCLGSIYEDLKMYQTEFQAINAALQNHNHQQIILDKGMLVAIDELMQSLNHNGETLRQKPPVGEADPYRVKMKLCILLHAFSTRVVTINRVMGYLSSAGGGGSGGGGSVSLTCLVKGFYPSDIAVEWESNGQPENNYKTTPPVLDSDGSFFLYSKLTVDKSRWQQGNVFSCSVMHEALHNHYTQKSLSLSPGKGGGGSGGGGSGGGGSGGGGSCDLPHTYNLGNKRALTVLEEMRRLPPLSCLKDRKDFGFPLEKVDNQQIQKAQAILVLRDLTQQILNLFTSKDLSATWNATLLDSFCNDLHQQLNDLKACVMQEPPLTQEDSLLAVRTYFHRITVYLRKKKHSLCAWEVIRAEVWRALSSSTNLLARLSEEKE", "light": "B1 light", "chain": "B2 chain", "notes": "IgG1; 3F2-mIL12-3A with mIFNa4 linked to each heavy chain C-terminus"}, "B7": {"name": "M7824 (antibody, human IgG1, lambda)", "heavy": "not shown", "light": "QSALTQPASVSGSPGQSITISCTGTSSDVGGYNYVSWYQQHPGKAPKLMIYDVSNRPSGVSNRFSGSKSGNTASLTISGLQAEDEADYYCSSYTSSSTRVFGTGTKVTVLGQPKANPTVTLFPPSSEELQANKATLVCLISDFYPGAVTVAWKADGSPVKAGVETTKPSKQSNNKYAASSYLSLTPEQWKSHRSYSCQVTHEGSTVEKTVAPTECS", "notes": "Extracellular domain of TGFbR2 linked at the C terminal of the Fc of the anti-PDL1 antibody; also called bifunctional anti-PD-L1/TGFβ Trap fusion protein"}}, "key": {"[1]": {"target": "T1, 6×Histidine-tagged human PD-L1 protein (hPDL1-His) (human, UniProt Q9NZQ7 19-238)", "T1 construct": "also called hPL1-His; His-tagged human PD-L1", "T1 sequence (Q9NZQ7 19-238 limits assumed)": "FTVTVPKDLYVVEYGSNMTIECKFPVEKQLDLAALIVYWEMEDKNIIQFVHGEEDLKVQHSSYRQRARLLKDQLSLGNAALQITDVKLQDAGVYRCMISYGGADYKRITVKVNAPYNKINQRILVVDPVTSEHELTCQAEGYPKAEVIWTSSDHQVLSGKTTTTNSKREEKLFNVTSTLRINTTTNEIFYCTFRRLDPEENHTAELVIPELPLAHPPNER", "experiment": "SPR Biacore T200; binder captured on protein A chip, target as analyte"}, "[2]": {"target": "T1, 6×Histidine-tagged human PD-L1 protein …", "experiment": "SPR Biacore T200; binder captured on protein A chip, target as analyte", "remark": "listed apart in the source"}, "[3]": {"target": "T1, 6×Histidine-tagged human PD-L1 protein …", "experiment": "SPR Biacore T200; binder captured on protein A chip, hPL1-His 1.5625-200 nM as analyte", "procedure": "Dissociation was monitored for 400 seconds. The chip was regenerated after the last injection of each titration with Glycine (pH 2.0, 30 μL/min for 12 seconds). As a person of ordinary skill in the art would understand, the same method with appropriate adjustments for parameters (e.g., fusion protein concentration) was performed for each tested fusion protein.\nKinetic association rates (kon) and dissociation rates (koff) were obtained simultaneously by fitting the data globally to a 1:1 Langmuir binding model (Karlsson, R. Roos, H. Fagerstam, L. Petersson, B., 1994. Methods Enzymology 6. 99-110) using Biacore™ T200 Evaluation Software 3.0. Affinities were calculated from the quotient of the kinetic rate constants (KD=koff/kon). […] Non-specific effects were not observed."}, "[4]": {"target": "T2, His-tagged recombinant mouse IL12RB2 protein (mIL12R-B2-His) (mouse, UniProt P97378 24-637, limits assumed)", "T2 construct": "bought", "T2 sequence (looked up)": "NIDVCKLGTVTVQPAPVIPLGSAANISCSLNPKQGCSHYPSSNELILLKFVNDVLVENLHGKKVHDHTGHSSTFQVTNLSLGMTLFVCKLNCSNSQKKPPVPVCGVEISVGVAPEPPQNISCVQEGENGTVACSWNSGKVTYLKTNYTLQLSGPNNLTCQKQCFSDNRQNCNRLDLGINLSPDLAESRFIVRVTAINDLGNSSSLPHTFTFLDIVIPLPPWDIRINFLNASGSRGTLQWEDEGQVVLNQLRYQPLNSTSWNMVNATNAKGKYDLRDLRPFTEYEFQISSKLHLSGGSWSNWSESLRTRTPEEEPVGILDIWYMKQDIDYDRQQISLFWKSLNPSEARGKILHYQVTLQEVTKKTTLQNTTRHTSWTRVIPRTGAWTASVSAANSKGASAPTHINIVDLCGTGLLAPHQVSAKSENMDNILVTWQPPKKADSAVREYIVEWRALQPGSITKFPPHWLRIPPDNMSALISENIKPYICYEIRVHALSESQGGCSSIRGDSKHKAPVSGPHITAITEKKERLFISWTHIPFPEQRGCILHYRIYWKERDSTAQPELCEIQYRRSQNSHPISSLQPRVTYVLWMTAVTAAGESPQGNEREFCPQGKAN", "experiment": "SPR Biacore T200; binder captured on protein A chip, target as analyte"}, "TGFb1": {"target": "T3, TGFb1 (Homo sapiens (Human), UniProt P01137 279-390, Active TGF-beta-1 is a disulfide-linked homodimer of this chain; one copy is given.)", "T3 construct": "also called TGFb1 protein", "T3 sequence (P01137 279-390 limits assumed)": "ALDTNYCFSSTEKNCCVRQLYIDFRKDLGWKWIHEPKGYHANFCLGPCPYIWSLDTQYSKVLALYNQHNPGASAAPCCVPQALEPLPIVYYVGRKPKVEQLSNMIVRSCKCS", "experiment": "SPR; binder as capture solution, TGFb1 as analyte"}}}
{"binder": "B1", "values": [{"measurement": "Kd", "setting": "[1]", "result": 372, "unit": "pM"}, {"measurement": "koff", "setting": "[1]", "result": 0.000652, "unit": "s⁻¹"}, {"measurement": "kon", "setting": "[1]", "result": "1.75e+06", "unit": "M⁻¹ s⁻¹"}, {"measurement": "Kd", "setting": "[2]", "result": 372, "unit": "pM"}, {"measurement": "koff", "setting": "[2]", "result": 0.000652, "unit": "s⁻¹"}, {"measurement": "kon", "setting": "[2]", "result": "1.75e+06", "unit": "M⁻¹ s⁻¹"}, {"measurement": "Kd", "setting": "[3]", "result": 559, "unit": "pM"}, {"measurement": "koff", "setting": "[3]", "result": 0.0013, "unit": "s⁻¹"}, {"measurement": "kon", "setting": "[3]", "result": "2.32e+06", "unit": "M⁻¹ s⁻¹"}]}
{"binder": "B2", "values": [{"measurement": "Kd", "setting": "[4]", "result": 58500, "unit": "pM"}, {"measurement": "koff", "setting": "[4]", "result": 0.00335, "unit": "s⁻¹"}, {"measurement": "kon", "setting": "[4]", "result": 57300, "unit": "M⁻¹ s⁻¹"}, {"measurement": "Kd", "setting": "[3]", "result": 382, "unit": "pM"}, {"measurement": "koff", "setting": "[3]", "result": 0.000952, "unit": "s⁻¹"}, {"measurement": "kon", "setting": "[3]", "result": "2.49e+06", "unit": "M⁻¹ s⁻¹"}]}
{"binder": "B3", "values": [{"measurement": "Kd", "setting": "[1]", "result": 685, "unit": "pM"}, {"measurement": "koff", "setting": "[1]", "result": 0.000803, "unit": "s⁻¹"}, {"measurement": "kon", "setting": "[1]", "result": "1.17e+06", "unit": "M⁻¹ s⁻¹"}]}
{"binder": "B4", "values": [{"measurement": "Kd", "setting": "[2]", "result": 613, "unit": "pM"}, {"measurement": "koff", "setting": "[2]", "result": 0.00072, "unit": "s⁻¹"}, {"measurement": "kon", "setting": "[2]", "result": "1.17e+06", "unit": "M⁻¹ s⁻¹"}]}
{"binder": "B5", "values": [{"measurement": "Kd", "setting": "[2]", "result": 515, "unit": "pM"}, {"measurement": "koff", "setting": "[2]", "result": 0.000613, "unit": "s⁻¹"}, {"measurement": "kon", "setting": "[2]", "result": "1.19e+06", "unit": "M⁻¹ s⁻¹"}]}
{"binder": "B6", "values": [{"measurement": "Kd", "setting": "[4]", "result": 56500, "unit": "pM"}, {"measurement": "koff", "setting": "[4]", "result": 0.00299, "unit": "s⁻¹"}, {"measurement": "kon", "setting": "[4]", "result": 52900, "unit": "M⁻¹ s⁻¹"}, {"measurement": "Kd", "setting": "[3]", "result": 396, "unit": "pM"}, {"measurement": "koff", "setting": "[3]", "result": 0.000922, "unit": "s⁻¹"}, {"measurement": "kon", "setting": "[3]", "result": "2.33e+06", "unit": "M⁻¹ s⁻¹"}]}
{"binder": "B7", "values": [{"measurement": "Kd", "setting": "TGFb1", "result": 83000, "unit": "pM"}, {"measurement": "koff", "setting": "TGFb1", "result": 0.00852, "unit": "s⁻¹"}, {"measurement": "kon", "setting": "TGFb1", "result": 103000, "unit": "M⁻¹ s⁻¹"}]}
